According to patent publication US20170165365A1 (SYMPHOGEN A S, published 2017):

T1: human HER4 antigen (human, UniProt Q15303 26-649, limits assumed)
T1 construct: Antigen coated for ELISA
T1 sequence (looked up): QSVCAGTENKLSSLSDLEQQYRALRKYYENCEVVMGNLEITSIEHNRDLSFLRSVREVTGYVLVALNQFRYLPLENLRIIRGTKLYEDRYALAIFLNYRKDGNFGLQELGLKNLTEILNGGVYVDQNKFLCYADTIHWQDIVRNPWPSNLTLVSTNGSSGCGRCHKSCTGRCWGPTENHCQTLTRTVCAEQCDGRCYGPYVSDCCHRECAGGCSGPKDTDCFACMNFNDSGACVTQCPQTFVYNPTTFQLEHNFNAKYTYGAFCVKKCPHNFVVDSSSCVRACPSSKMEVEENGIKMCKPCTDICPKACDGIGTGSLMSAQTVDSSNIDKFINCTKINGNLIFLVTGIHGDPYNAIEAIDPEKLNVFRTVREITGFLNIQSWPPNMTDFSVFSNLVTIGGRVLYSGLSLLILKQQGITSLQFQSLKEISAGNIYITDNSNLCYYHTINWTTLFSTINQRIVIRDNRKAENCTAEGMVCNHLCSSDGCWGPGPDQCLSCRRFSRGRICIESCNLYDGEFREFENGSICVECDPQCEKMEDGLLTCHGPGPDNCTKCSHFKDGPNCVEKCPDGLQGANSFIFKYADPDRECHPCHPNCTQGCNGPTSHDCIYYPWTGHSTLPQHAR

T2: murine HER4 antigen (mouse, UniProt Q61527 26-652, limits assumed)
T2 construct: In-house antigen coated for ELISA; also called mouse HER4
T2 sequence (looked up): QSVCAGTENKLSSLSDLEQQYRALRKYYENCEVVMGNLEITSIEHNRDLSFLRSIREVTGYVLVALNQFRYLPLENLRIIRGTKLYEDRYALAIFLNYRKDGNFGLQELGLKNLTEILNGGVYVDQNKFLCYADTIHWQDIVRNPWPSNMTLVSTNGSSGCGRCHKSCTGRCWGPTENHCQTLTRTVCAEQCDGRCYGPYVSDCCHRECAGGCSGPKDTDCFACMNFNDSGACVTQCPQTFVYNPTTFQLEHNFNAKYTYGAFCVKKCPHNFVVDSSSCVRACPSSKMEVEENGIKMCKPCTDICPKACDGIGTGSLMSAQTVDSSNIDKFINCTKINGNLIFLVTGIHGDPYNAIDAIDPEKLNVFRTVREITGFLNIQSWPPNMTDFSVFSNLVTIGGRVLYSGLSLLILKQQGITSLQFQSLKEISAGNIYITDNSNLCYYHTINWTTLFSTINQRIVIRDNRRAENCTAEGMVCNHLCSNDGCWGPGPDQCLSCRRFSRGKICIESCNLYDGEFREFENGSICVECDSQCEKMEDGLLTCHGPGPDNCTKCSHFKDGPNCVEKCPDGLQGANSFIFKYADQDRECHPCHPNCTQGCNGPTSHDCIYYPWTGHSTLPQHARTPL


Tests used:
cynomolgus EGFR antigen [1] = biological target: T3, cynomolgus EGFR antigen (cynomolgus monkey, UniProt A0A2K5WK39 25-645); test: ELISA, coated cy EGFR
T3 construct: In-house antigen; also called cynomolgus antigen
Protocol: (§1) Antibody-antigen binding was measured by ELISA with coated antigens. Human antigens were obtained from Sino Biologicals. All other antigens were produced in-house by transient expression in CHO or HEK293 cells. Chimeric and humanized antibodies, as well as an isotype control antibody, were incubated with the coated antigens at different concentrations. After wash, bound antibodies were detected by HRP-(horse radish peroxidase)-conjugated secondary antibodies.

cynomolgus HER3 antigen [2] = biological target: T4, cynomolgus HER3 antigen (cynomolgus monkey, UniProt G7PIG5 20-643); test: ELISA, coated cy HER3
T4 construct: In-house antigen; also called cynomolgus antigen
T4 sequence (G7PIG5 entry or part of it): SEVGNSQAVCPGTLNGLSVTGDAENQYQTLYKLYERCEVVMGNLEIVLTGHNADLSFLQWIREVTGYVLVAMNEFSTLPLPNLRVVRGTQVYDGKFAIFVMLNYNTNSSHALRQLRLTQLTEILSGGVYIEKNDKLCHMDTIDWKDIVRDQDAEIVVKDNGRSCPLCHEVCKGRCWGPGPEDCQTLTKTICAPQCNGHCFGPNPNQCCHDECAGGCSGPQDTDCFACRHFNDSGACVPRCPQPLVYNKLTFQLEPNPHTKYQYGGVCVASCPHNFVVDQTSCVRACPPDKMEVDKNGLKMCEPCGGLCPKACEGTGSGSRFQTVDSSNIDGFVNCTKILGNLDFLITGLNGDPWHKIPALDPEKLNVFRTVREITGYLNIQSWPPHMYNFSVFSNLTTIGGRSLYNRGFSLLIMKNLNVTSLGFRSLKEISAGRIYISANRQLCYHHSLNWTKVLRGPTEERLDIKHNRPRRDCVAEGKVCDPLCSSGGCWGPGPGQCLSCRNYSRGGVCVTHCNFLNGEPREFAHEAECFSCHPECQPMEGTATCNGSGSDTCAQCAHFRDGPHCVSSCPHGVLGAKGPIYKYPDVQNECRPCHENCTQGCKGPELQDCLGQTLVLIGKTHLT
Protocol: as §1

[3] = biological target: T5, human EGFR antigen (Sino Biologicals) (human, UniProt P00533 25-645); test: ELISA, coated hu EGFR
T5 construct: Bought soluble antigen; also called human antigen
Protocol: as §1

[4] = biological target: T6, human HER3 antigen (Sino Biologicals) (human, UniProt P21860 20-643); test: ELISA, coated hu HER3
T6 construct: Bought soluble antigen; also called human antigen
Protocol: as §1

human HER4 antigen = biological target: T1, human HER4 antigen; test: ELISA, coated hu HER4
Protocol: as §1

mouse EGFR antigen = biological target: T7, mouse EGFR antigen (mouse, UniProt Q01279 25-647, limits assumed); test: ELISA, coated mu EGFR
T7 construct: In-house antigen coated for ELISA; also called mouse antigen; murine EGFR
Protocol: as §1

mouse HER2 antigen = biological target: T8, mouse HER2 antigen (mouse, UniProt P70424 23-653, limits assumed); test: ELISA, coated mu HER2
T8 construct: In-house antigen coated for ELISA; also called mouse antigen; murine HER2
T8 sequence (P70424 23-653 limits assumed): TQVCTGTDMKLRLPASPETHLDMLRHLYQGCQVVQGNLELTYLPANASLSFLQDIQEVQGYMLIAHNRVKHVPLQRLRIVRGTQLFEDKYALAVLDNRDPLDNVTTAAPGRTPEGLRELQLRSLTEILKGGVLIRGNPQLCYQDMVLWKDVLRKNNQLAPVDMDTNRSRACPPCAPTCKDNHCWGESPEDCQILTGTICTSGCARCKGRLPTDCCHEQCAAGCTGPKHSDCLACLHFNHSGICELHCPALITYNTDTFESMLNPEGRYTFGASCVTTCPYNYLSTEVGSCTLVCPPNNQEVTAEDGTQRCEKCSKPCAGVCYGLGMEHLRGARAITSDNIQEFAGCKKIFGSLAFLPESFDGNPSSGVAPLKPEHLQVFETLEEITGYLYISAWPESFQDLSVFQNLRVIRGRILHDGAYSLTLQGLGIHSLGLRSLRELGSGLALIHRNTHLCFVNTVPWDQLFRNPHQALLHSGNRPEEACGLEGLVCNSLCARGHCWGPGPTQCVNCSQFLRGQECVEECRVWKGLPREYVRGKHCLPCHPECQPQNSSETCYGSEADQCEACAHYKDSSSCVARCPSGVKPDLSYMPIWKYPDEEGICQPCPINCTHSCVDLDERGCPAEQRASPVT
Protocol: as §1

mouse HER3 antigen = biological target: T9, mouse HER3 antigen (mouse, UniProt Q61526 20-641, limits assumed); test: ELISA, coated mu HER3
T9 construct: In-house antigen coated for ELISA; also called mouse antigen; murine HER3
T9 sequence (Q61526 20-641 limits assumed): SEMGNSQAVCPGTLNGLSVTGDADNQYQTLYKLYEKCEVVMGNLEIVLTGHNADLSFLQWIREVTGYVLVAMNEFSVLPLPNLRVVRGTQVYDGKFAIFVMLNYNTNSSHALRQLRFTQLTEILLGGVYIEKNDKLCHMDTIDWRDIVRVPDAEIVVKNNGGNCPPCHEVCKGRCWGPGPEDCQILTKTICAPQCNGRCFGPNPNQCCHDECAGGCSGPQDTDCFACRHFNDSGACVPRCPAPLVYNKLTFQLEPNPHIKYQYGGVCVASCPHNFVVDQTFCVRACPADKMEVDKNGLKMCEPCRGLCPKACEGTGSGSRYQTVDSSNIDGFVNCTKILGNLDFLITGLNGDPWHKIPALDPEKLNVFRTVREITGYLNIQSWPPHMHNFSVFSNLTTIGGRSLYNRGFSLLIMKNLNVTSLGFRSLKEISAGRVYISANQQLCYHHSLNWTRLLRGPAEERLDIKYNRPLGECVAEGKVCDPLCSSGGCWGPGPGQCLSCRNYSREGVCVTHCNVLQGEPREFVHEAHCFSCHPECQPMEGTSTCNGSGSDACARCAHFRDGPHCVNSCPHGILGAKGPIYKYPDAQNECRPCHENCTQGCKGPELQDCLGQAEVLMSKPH
Protocol: as §1

murine HER4 antigen = biological target: T2, murine HER4 antigen; test: ELISA, coated mu HER4
Protocol: as §1

[5] = biological target: cynomolgus HER2 antigen (cynomolgus monkey); test: SPR (ProteOn XPR36), IgG captured by anti-human Fc, soluble monovalent antigen, 1:1 fit
[6] = biological target: T10, human HER2 antigen (Sino Biologicals) (human, UniProt P04626 23-652); test: ELISA, coated hu HER2
T10 construct: Bought soluble antigen; also called human antigen
Protocol: as §1

cynomolgus EGFR antigen [7] = biological target: T3, cynomolgus EGFR antigen; test: SPR (ProteOn XPR36), IgG captured by anti-human Fc, soluble monovalent antigen, 1:1 fit
Protocol: (§2) Kinetic binding analysis of the purified humanized variants was performed on a ProteOn™ XPR36 biosensor (BioRad, USA) employing an IgG capture assay as described by Canziani et al. (Anal. Biochem. (2004) 325:301-307) that allows for measurement of antibody affinities of whole IgG molecules against soluble antigen under monovalent conditions. Briefly, approximately 5000 resonance units (RU) of a monoclonal mouse anti-human IgG Fc antibody (GE Healthcare, Denmark) was conjugated to a GLC chip surface (BioRad, USA) according to the manufacturer's instructions, followed by capture of individual antibodies of the invention or a negative control on the anti-Fc sensor surface. […] Next, 250 μl monovalent antigen (Sino Biologicals) was injected at a flow rate of 50 μl/min in serial threefold dilutions from 100 nM stock to generate response curves. The chip surface was regenerated between cycles by stripping the captured antibody/antigen complexes off the surface with a 10-second injection of 3 M MgCl₂ (GE Healthcare, Denmark) repeated three times. Finally, binding responses were fitted to a Langmuir 1:1 binding model for calculation of the on-rate (kon or ka), off-rate (koff or kd) and affinity (KD) constants using double referencing.

[8] = biological target: T6, human HER3 antigen (Sino Biologicals); test: as above
Protocol: as §2

cynomolgus HER3 antigen [9] = biological target: T4, cynomolgus HER3 antigen; test: as above
Protocol: as §2

| binding result (cynomolgus EGFR antigen [1]) | binding result (cynomolgus HER3 antigen [2]) | binding result [3] | binding result [4] | binding result (human HER4 antigen) | binding result (mouse EGFR antigen) | binding result (mouse HER2 antigen) | binding result (mouse HER3 antigen) | binding result (murine HER4 antigen) | Kd [5] | koff [5] | kon [5] | binding result [6] | Kd (cynomolgus EGFR antigen [7]) | Kd [8] | koff [8] | kon [8] | Kd (cynomolgus HER3 antigen [9]) | koff (cynomolgus HER3 antigen [9]) | kon (cynomolgus HER3 antigen [9]) | Binder |
| --- | --- | --- | --- | --- | --- | --- | --- | --- | --- | --- | --- | --- | --- | --- | --- | --- | --- | --- | --- | --- |
| no binding (tested: 40 nM) | no binding (tested: 40 nM) | no binding (tested: 40 nM) | no binding (tested: 40 nM) | no binding (tested: 40 nM) | no binding (tested: 40 nM) | no binding (tested: 40 nM) | no binding (tested: 40 nM) | no binding (tested: 40 nM) | 12 nM | 0.00063 s⁻¹ | 53000 M⁻¹ s⁻¹ | – | – | – | – | – | – | – | – | humanized anti-HER2 antibody 11145 (antibody, V domains shown) VH: EVQLVESGGGLVKPGGSLRLSCAASGFTFSSYGMSWVRQAPGKGLEWVATISGGGSYTYYPDSVKGRFTISRDIAKSSLYLQMNSLRAEDTAVYYCARKGNYGNYGKLAYWGQGTTVTVSS VL: DIQMTQSPSSLSASVGDRVTITCRASENIYSNLAWYQQKPGKAPKLLIYAATNLATGVPSRFSGSGSGTDYTLTISSLQPEDFASYYCQHFWGTPWTFGQGTKLEIK |
| – | no binding (tested: 40 nM) | – | no binding (tested: 40 nM) | no binding (tested: 40 nM) | no binding (tested: 40 nM) | no binding (tested: 40 nM) | no binding (tested: 40 nM) | no binding (tested: 40 nM) | – | – | – | no binding (tested: 40 nM) | 0.59 nM | – | – | – | – | – | – | chimeric anti-EGFR antibody 1277 (antibody, V domains shown, the light chain entry is full length) VH: EVQLVESGGGLVKPGESLKLSCAASGFAFSYSDMSWVRQTPEKRLEWVAYMSSAGDVTFYSDTVKGRFTISRDNAKNTLYLQVSSLKSEDTAIYYCVRHRDVAMDYWGQGTSVTVS VL: DVVMTQTPLSLPVSLGDQASISCRSSQSLVHSNGNTYLHWYLQKPGQSPKLLIYKVSNRFSGVPDRFSGSGSGTDFTLKISRVEAEDLGVYFCSQSTHVPTFGGGTKLEIKR |
| no binding (tested: 40 nM) | no binding (tested: 40 nM) | no binding (tested: 40 nM) | no binding (tested: 40 nM) | no binding (tested: 40 nM) | no binding (tested: 40 nM) | no binding (tested: 40 nM) | no binding (tested: 40 nM) | no binding (tested: 40 nM) | 2.9 nM | 0.0005 s⁻¹ | 180000 M⁻¹ s⁻¹ | – | – | – | – | – | – | – | – | chimeric anti-HER2 antibody 4384 (antibody, V domains shown, light chain entry is full length) VH: QVQLQQPGTELVKPGASVKLSCKASGYTFTSHWMHWVKQRPGQGLEWIGNINPSNGGTNYNEKFKSRATLTVDKASSTAYMQLSSLTSEDSAVYYCARAYYDFSWFVYWGQGTLVTVS VL: DIQMTQTSSSLSASLGDRVTISCRSSQDISNYLNWYQQKPDGTVKLLMYISRLHSGVPSRFSGSGSGTEYSLTISNLEQEDIATYFCQQGNTLPLTFGAGTKLELKR |
| no binding (tested: 40 nM) | no binding (tested: 40 nM) | no binding (tested: 40 nM) | no binding (tested: 40 nM) | no binding (tested: 40 nM) | no binding (tested: 40 nM) | no binding (tested: 40 nM) | no binding (tested: 40 nM) | no binding (tested: 40 nM) | – | – | – | – | – | – | – | – | – | – | – | humanized anti-HER2 antibody 10704 (antibody, V domains shown) VH: QVQLVQSGAEVKKPGASVKVSCKASGYTFTSHWMHWVRQAPGQGLEWMGNINPSSGGTNYNEKFKSRVTLTVDKSTSTAYMELSSLRSEDTAVYYCARAYYDFSWFVYWGQGTLVTVSS VL: DIQMTQSPSSLSASVGDRVTITCRSSQDISNYLNWYQQKPGKAVKLLMYISRLHSGVPSRFSGSGSGTDYTFTISSLQPEDIATYYCQQGNTLPLTFGGGTKVEIK |
| no binding (tested: 40 nM) | – | no binding (tested: 40 nM) | – | no binding (tested: 40 nM) | no binding (tested: 40 nM) | no binding (tested: 40 nM) | no binding (tested: 40 nM) | no binding (tested: 40 nM) | – | – | – | no binding (tested: 40 nM) | – | 0.18 nM | 0.00016 s⁻¹ | 870000 M⁻¹ s⁻¹ | 0.19 nM | 0.00026 s⁻¹ | 1.3e+06 M⁻¹ s⁻¹ | humanized anti-HER3 antibody 11052 (antibody, V domains shown) VH: QVQLQESGPGLVKPSQTLSLTCTVSGYSITSAYYWNWIRQFPGKGVEWMGYIGYSGRNTYNPSLKNRVTISRDTSKNQFSLKLSSVTAADTAVYYCSREGDYGYSDYWGQGTLVTVSS VL: DIQMTQSPSSLSASVGDRVTVTCRASQDINNYLNWYQQKPGKAVKLLIYYTSRLQSGVPSRFSGSGSGTDYTLTISSLQPEDFATYFCQQSETLPWTFGQGTKLEIK |
